# Test results published in paper PMC8113463, “Structural visualization of transcription activated by a multidrug-sensing MerR family regulator” (Nature Communications, 2021).
# T1: EcmrR (UniProt PDB:6XLK_3 1-268)
# T1 sequence: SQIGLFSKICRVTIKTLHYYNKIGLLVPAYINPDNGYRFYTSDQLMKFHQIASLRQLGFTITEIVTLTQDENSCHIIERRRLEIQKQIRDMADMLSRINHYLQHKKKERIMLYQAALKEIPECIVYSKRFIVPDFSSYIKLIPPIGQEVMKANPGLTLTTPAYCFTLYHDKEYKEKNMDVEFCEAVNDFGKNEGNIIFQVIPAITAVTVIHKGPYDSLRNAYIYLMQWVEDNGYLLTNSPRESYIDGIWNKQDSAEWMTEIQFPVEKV
# B1: 54-bp heteroduplex promoter scaffold, 19-bp spacer (NT strand DNA-1 / T strand DNA-1) (dsDNA)
# DNA 1: GCCTTGACCCTCCCCTAAGGGGAGGGTTTAGATTGTGTGCAGTCTGACGCGGCG
# DNA 2: CGCCGCGTCAGACTCGTAGGAATCTAAACCCTCCCCTTAGGGGAGGGTCAAGGC
# B2: 54-bp fully complementary promoter scaffold, 19-bp spacer (NT strand DNA-1 / T strand DNA-2) (dsDNA)
# DNA 1: GCCTTGACCCTCCCCTAAGGGGAGGGTTTAGATTGTGTGCAGTCTGACGCGGCG
# DNA 2: CGCCGCGTCAGACTGCACACAATCTAAACCCTCCCCTTAGGGGAGGGTCAAGGC
# Columns and labels:
# EcmrR CTD = target: T2, EcmrR CTD (Escherichia coli, UniProt A0A8I3B051); test: X-ray crystal structure, […] Å; format: binding; details: sites I and II both occupied; detergent of the crystallisation solution, 5 mM
# T2 construct: E. coli BL21 Star (DE3)
# [1] = target: EcmrR (multidrug-sensing MerR family transcriptional regulator of Escherichia coli), full length, wild type (Escherichia coli); test: cryo-EM structure
# EcmrR (full length) = target: T3, EcmrR (full length) (Escherichia coli, UniProt A0A8I3B051); format: binding; details: second site (site II) in CTD; TPSb+ in site I; 8 mM CHAPSO added before grid preparation; density of the sterol head, relevance of the site left open by the authors
# T3 construct: E. coli BL21 Star (DE3); codon-optimised gene; homodimer on promoter DNA with E. coli RNAP-sigma70
# EcmrR [2] = target: T1, EcmrR; test: cryo-EM (focused map of spacer DNA subcomplex within RPo); TPSb+, CHAPSO; RNAP present in the particle; Complex assembly: core RNAP:σ70:EcmrR-promoter 1:1.4:2, 5 mM MgCl2, 5 mM TPSb+ Br-, 23 °C 3 h, then (initial transcribing complexes) rNTPs 37 °C 10 min; SEC purified; DNA in 20 mM Tris-HCl pH 7.5, 100 mM KCl, 1 mM TCEP; final SEC buffer not given; details: protein: recombinant; tags: expressed as N-terminal His6-Smt3 fusion; chain copies: 2; pre-melted bubble from non-complementary strand segments, blunt ends
# EcmrR [3] = target: T1, EcmrR; test: cryo-EM (focused map of spacer DNA subcomplex within RPitc-4nt); TPSb+, CHAPSO; RNAP present in the particle; Complex assembly: core RNAP:σ70:EcmrR-promoter 1:1.4:2, 5 mM MgCl2, 5 mM TPSb+ Br-, 23 °C 3 h, then (initial transcribing complexes) rNTPs 37 °C 10 min; SEC purified; DNA in 20 mM Tris-HCl pH 7.5, 100 mM KCl, 1 mM TCEP; final SEC buffer not given; details: protein: recombinant; tags: expressed as N-terminal His6-Smt3 fusion; chain copies: 2; blunt
molecule,measurement,setting,value
CCCCCCCCCCCCCCCC[N+](C)(C)C [CTA^+],"X-ray crystal structure, 1.4 Å",EcmrR CTD,wherein both sites are occupied by cetyltrimethylammonium cation (CTA^+)
"EcmrR (multidrug-sensing MerR family transcriptional regulator of Escherichia coli), full length, wild type (natural protein)",stoichiometry N,[1],2
"C[C@H](CCC(=O)NCCC[N+](C)(C)CC(O)CS(=O)(=O)[O-])[C@H]1CC[C@H]2[C@@H]3[C@H](O)C[C@@H]4C[C@H](O)CC[C@]4(C)[C@H]3C[C@H](O)[C@]12C (some centres unmarked) [CHAPSO, 3-([3-cholamidopropyl]dimethylammonio)-2-hydroxy-1-propanesulfonate]",cryo-EM structure of the complex,EcmrR (full length),The density likely corresponds to the tetracyclic sterol head of CHAPSO
B1,binding result,EcmrR [2],binds
B2,binding result,EcmrR [3],binds
